Results published in paper PMC11525548.

target: human CEACAM5 extracellular domain (Homo sapiens) (UniProt P06731); test: SPR

Row | Substance | Kd [nM] | koff [s⁻¹] | kon [M⁻¹ s⁻¹] | t1/2 of dissociation [min]
1 | tusamitamab antigen-binding fragment region plus the fragment crystallizable region, wild type (antibody) | 14 | 0.00386 | 275000 | –
2 | tusa Fab+Fc heavy chain Tyr50Ala variant (antibody) | 2010 | 0.0531 | 26400 | –
3 | tusa Fab+Fc heavy chain His99Ala variant (antibody) | 306 | 0.0199 | 64800 | –
4 | tusa Fab+Fc light chain His91Ala variant (antibody) | – | 0.0637 | 73200 | –
5 | tusa Fab+Fc light chain Tyr92Ala variant (antibody) | 1790 | 0.0552 | 30800 | –
6 | tusa Fab+Fc light chain Phe30Ala variant (antibody) | 1340 | 0.0362 | – | 0.3

Now from value to substance:

Row | Kd [nM] | koff [s⁻¹] | kon [M⁻¹ s⁻¹] | t1/2 of dissociation [min] | Substance
7 | 5.6 | – | 321000 | – | tusa Fab+Fc heavy chain Ser53Ala variant (antibody)
8 | 8.2 | 0.00368 | – | – | tusa Fab+Fc heavy chain Phe29Ala variant (antibody)
9 | 8.2 | 0.00322 | 395000 | – | tusa Fab+Fc heavy chain Gly26Ala variant (antibody)
10 | 6.7 | 0.00205 | 307000 | – | tusa Fab+Fc heavy chain Ser30Ala variant (antibody)
11 | 8.2 | 0.00238 | 291000 | – | tusa Fab+Fc light chain Ser31Ala variant (antibody)

target: tusa Fab+Fc light chain Pro95Ala variant (human) (UniProt P01834); test: SPR

Row | Kd [µM] | koff [s⁻¹] | kon [M⁻¹ s⁻¹] | Substance
12 | 13.5 | 0.0177 | 1310 | human CEACAM5 extracellular domain (from UniProt P06731 35-685) (domain or fragment)
